In article PMC6720714, “Structural and Biological Characterizations of Novel High-Affinity Fluorescent Probes with Overlapped and Distinctive Binding Regions on CXCR4” (Molecules, 2019):
Bridge positions count the residues as written; N and C are the ends. Square brackets hold non-standard residues; d marks the D form. Ends that are not written are not given here. Peptide text beside a SMILES is read from it. 2Nal = N[C@@H](Cc1ccc2ccccc2c1)C(=O)O; Lys(iPr) = CC(C)NCCCC[C@H](N)C(=O)O; Cit = NC(=O)NCCC[C@H](N)C(=O)O

Columns and labels:
[1] = target: CXC-type chemokine receptor 4 (CXCR4) (UniProt P61073); assay: competitive binding on cells, fluorescence by microplate reader; FITC-DV1-based: CHO-CXCR4 cells, 1 μM FITC-DV1 with gradient concentrations of ligand in 1% BSA/PBS, 50 min, 4 °C, dark, washed twice; excitation 485 nm, emission 535 nm
Chain of CXC-type chemokine receptor 4 (CXCR4) (UniProt P61073) (P61073 whole entry): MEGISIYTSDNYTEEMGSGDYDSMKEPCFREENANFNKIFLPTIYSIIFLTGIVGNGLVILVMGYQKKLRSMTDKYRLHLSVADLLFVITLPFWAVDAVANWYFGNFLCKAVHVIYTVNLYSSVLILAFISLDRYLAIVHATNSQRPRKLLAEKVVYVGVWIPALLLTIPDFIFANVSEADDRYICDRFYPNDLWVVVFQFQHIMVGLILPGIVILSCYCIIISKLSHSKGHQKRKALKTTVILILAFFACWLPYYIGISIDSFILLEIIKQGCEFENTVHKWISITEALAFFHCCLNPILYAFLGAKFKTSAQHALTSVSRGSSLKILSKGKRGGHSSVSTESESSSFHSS

[2] = target: CXC-type chemokine receptor 4 (CXCR4) (UniProt P61073); assay: competitive binding on cells, fluorescence by microplate reader; FITC-CVX15-based: CHO-CXCR4 cells, 400 nM FITC-CVX15 with gradient concentrations of ligand in 1% BSA/PBS, 50 min, 4 °C, dark, washed twice; excitation 485 nm, emission 535 nm
[3] = target: CXC-type chemokine receptor 4 (CXCR4) (UniProt P61073); assay: competitive binding on cells, fluorescence by microplate reader; 12G5-based: CHO-CXCR4 cells, antibody 12G5 (250 ng/mL; 1:2000) with gradient concentrations of ligand in 0.5% BSA/PBS, 40 min, 4 °C; FITC-conjugated goat anti-mouse IgG 30 min; excitation 485 nm, emission 535 nm
CXCR4 [4] = target: T1, CXCR4 (Homo sapiens, UniProt P61073); assay: cell-based
T1 sequence (P61073 whole entry): as above

CXCR4 [5] = target: T1, CXCR4; assay: FITC-CVX15-based competitive binding assay on CHO-CXCR4 cells; set-up: expressed in transfected cells; host or cells: CHO (CHO-CXCR4, G418-selected)
CXCR4 [6] = target: T1, CXCR4; assay: 12G5 antibody-based competitive binding assay on CHO-CXCR4 cells; set-up: expressed in transfected cells; host or cells: CHO (CHO-CXCR4, G418-selected)
Method: (§1) Gradient concentrations of CXCR4 ligands were prepared with 1% BSA/PBS. CHO-CXCR4 cells were cultured and diluted into 5 × 10^5 cells/mL in 0.5% BSA/PBS. One hundred microliters of above cell solutions were added to each well of a 96-well plate and washed twice with 0.5% BSA/PBS. Cells were then incubated with 100 μL primary 12G5 Ab (1:2000, mouse anti-human CD184 antibody, BD Biosciences, CA, USA) in 0.5% BSA/PBS except for negative control group and gradient concentrations of CXCR4 ligands for 40 min on a shaker at 4 °C.

CXCR4 [7] = target: T1, CXCR4; assay: Three parallel CXCR4 competitive binding assays (FITC-CVX15, FITC-DV1, 12G5) compared; set-up: expressed in transfected cells; host or cells: CHO (CHO-CXCR4, G418-selected); details: for difference of IC50 values between the three binding systems: Type 1, relative to the minimum values
Method: as §1

[8] = target: CXC-type chemokine receptor 4 (CXCR4) (UniProt P61073); assay: saturation binding on cells, fluorescence by microplate reader
[9] = target: T2, CXC-type chemokine receptor 4 (CXCR4) (UniProt P61073 1-352); assay: competitive binding on cells, fluorescence by microplate reader; FITC-DV1-based: CHO-CXCR4 cells, 1 μM FITC-DV1 with gradient concentrations of ligand in 1% BSA/PBS, 50 min, 4 °C, dark, washed twice; excitation 485 nm, emission 535 nm; details: one partner purified
T2 construct: also called CD184; CHO-CXCR4
T2 sequence (P61073 whole entry): as above

[10] = target: T2, CXC-type chemokine receptor 4 (CXCR4); assay: competitive binding on cells, fluorescence by microplate reader; FITC-CVX15-based: CHO-CXCR4 cells, 400 nM FITC-CVX15 with gradient concentrations of ligand in 1% BSA/PBS, 50 min, 4 °C, dark, washed twice; excitation 485 nm, emission 535 nm; details: one partner purified
[11] = target: T2, CXC-type chemokine receptor 4 (CXCR4); assay: competitive binding on cells, fluorescence by microplate reader; 12G5-based: CHO-CXCR4 cells, antibody 12G5 (250 ng/mL; 1:2000) with gradient concentrations of ligand in 0.5% BSA/PBS, 40 min, 4 °C; FITC-conjugated goat anti-mouse IgG 30 min; excitation 485 nm, emission 535 nm; details: one partner purified

## CVX15 (peptide)
[1]
  IC50: 6.8 nM
[2]
  IC50: 6.2 nM
[3]
  IC50: 6 nM

## CC(C)C[C@H](NC(=O)[C@H](CS)NC(=O)[C@H](CS)NC(=O)[C@H](CCCCN)NC(=O)[C@H](CC(=O)O)NC(=O)[C@@H]1CCCN1C(=O)[C@H](CCCNC(=N)N)NC(=O)[C@H](Cc1c[nH]cn1)NC(=O)[C@H](Cc1c[nH]c2ccccc12)NC(=O)[C@H](CO)NC(=O)[C@H](C)NC(=O)CNC(=O)[C@@H](N)CC(C)C)C(=O)NCC(=O)N[C@@H](Cc1ccc(O)cc1)C(=O)N[C@@H](CCC(N)=O)C(=O)N[C@@H](CCCCN)C(=O)N[C@@H](CCCNC(=N)N)C(=O)N1CCC[C@H]1C(=O)N[C@@H](CC(C)C)C(=O)N1CCC[C@H]1C(=O)O [V1] (H-LGASWHRPDKCCLGYQKRPLP-OH)
CXCR4 [4]
  IC50: 676 nM
CXCR4 [5]
  IC50: 687 nM
CXCR4 [6]
  IC50: 712 nM
CXCR4 [7]
  difference of IC50 values between the three binding systems: less than two folds

## N=C(N)NCCC[C@@H]1NC(=O)[C@@H]2CSSC[C@H](NC(=O)[C@H](Cc3ccc4ccccc4c3)NC(=O)[C@H](CCCNC(=N)N)NC(=O)[C@H](CCCNC(=N)N)NC(=O)[C@H]3CCCN3C(=O)CNC1=O)C(=O)N[C@@H](Cc1ccc(O)cc1)C(=O)N[C@@H](CCC(N)=O)C(=O)N[C@@H](CCCCN)C(=O)N1CCC[C@@H]1C(=O)N1CCC[C@H]1C(=O)N[C@@H](Cc1ccc(O)cc1)C(=O)N[C@@H](CCCNC(=N)N)C(=O)N[C@@H](CCCNC(N)=O)C(=O)N2 [CVX15] (cyclo(RR[2Nal]CYQK[dP]PYR[Cit]CRG[dP]); disulfide 4-13)
CXCR4 [7]
  difference of IC50 values between the three binding systems: less than two folds

## FITC-CVX15 (peptide)
[8]
  concentration at which the fluorescent signal reached a plateau: 400 nM

## CC(C)NCCCC[C@H](NC(=O)[C@H]1CCC(=O)N[C@@H](Cc2ccccc2)C(=O)N[C@@H](Cc2ccc(O)cc2)C(=O)N[C@@H](CCCCNC(C)C)C(=O)N[C@H](CCCNC(=N)N)C(=O)N[C@@H](Cc2ccc3ccccc3c2)C(=O)NCC(=O)N1)C(N)=O [LY2510924] (FY[Lys(iPr)][dR][2Nal]G[dE][Lys(iPr)]-NH2; lactam N-7)
CXCR4 [7]; Type 3
  IC50 from 12G5-based assay versus IC50 from FITC-CVX15 and FITC-DV1 assays: over two-fold higher

## CC(C)C[C@@H](N)C(=O)NCC(=O)N[C@H](C)C(=O)N[C@H](CO)C(=O)N[C@H](Cc1c[nH]c2ccccc12)C(=O)N[C@H](Cc1c[nH]cn1)C(=O)N[C@H](CCCNC(=N)N)C(=O)N1CCC[C@@H]1C(=O)N[C@H](CC(=O)O)C(=O)N[C@H](CCCCN)C(=O)N[C@H](CS)C(=O)N[C@H](CS)C(=O)N[C@H](CC(C)C)C(=O)NCC(=O)N[C@H](Cc1ccc(O)cc1)C(=O)N[C@H](CCC(N)=O)C(=O)N[C@H](CCCCN)C(=O)N[C@H](CCCNC(=N)N)C(=O)N1CCC[C@@H]1C(=O)N[C@H](CC(C)C)C(=O)N1CCC[C@@H]1C(N)=O [DV1] (H-[dL]G[dA][dS][dW][dH][dR][dP][dD][dK][dC][dC][dL]G[dY][dQ][dK][dR][dP][dL][dP]-NH2)
CXCR4 [7]
  difference of IC50 values between the three binding systems: less than two folds

## [dL]G[dA][dS][dW][dH][dR][dP][dD][dK][dC][dC][dL]G[dY][dQ][dK][dR][dP][dL][dP] (cysteine pairing not given here; also: dimer (linkage not given here)) [DV1 dimer]
[9]
  IC50: 25.6 nM
[10]
  IC50: 29.4 nM
[11]
  IC50: 67 nM
